Results as given in the supplement of paper PMC9732359.
± gives the uncertainty stated by the source.

Assay: protein stability index of a GFP-peptide fusion (yeast GPS) (PSI 1-4); higher = more stable; sorted into four equal gates, so the index is relative within each strain
Summary of the method: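 Tiled 17-residue peptides from yeast proteins were fused downstream of GFP on a plasmid that also expresses Cherry, and the pooled library was carried in yeast. Mid-log cultures grown in leucine-free medium were sorted into four equal gates by GFP/Cherry fluorescence ratio. Plasmids from each gate were PCR-amplified and Illumina-sequenced, and reads were assigned to strains by barcodes. Each peptide's protein stability index is the sum, over gates, of the gate's read frequency multiplied by its gate number.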

Row | Sequence | protein stability index (doa10∆) | protein stability index (pdr5∆) | protein stability index (san1∆) | protein stability index (ubr1∆)
1 | SKKRFAAIWTLCKTKMV [RPO21] | 1.75 ± 0.048 | 1.53 ± 0.049 | 1.24 ± 0.099 | 1.57 ± 0.032
2 | VAKRRFEYSKYRPLTPS [RRP6] | 3.27 ± 0.066 | 3.28 ± 0.084 | 3.15 ± 0.035 | 2.96 ± 0.049
3 | FLNNGEVDSASDFISKL [RPN3] | 2.57 ± 0.29 | 3.33 ± 0.21 | 2.8 ± 0.27 | 3.29 ± 0.13
4 | PINGNEAESQWYIEKVI [CSI1] | 2.47 ± 0.081 | 2.88 ± 0.078 | 3.09 ± 0.1 | 2.93 ± 0.18
5 | GWKYEDVVAKLEAKRKV [RPL16A] | 2.78 ± 0.082 | 1.88 ± 0.063 | 1.93 ± 0.13 | 1.88 ± 0.046
6 | DEEENGSSDEDLKSLNV [SSN2] | 3.24 ± 0.11 | 3.54 ± 0.1 | 3.35 ± 0.057 | 3.23 ± 0.093
7 | GLPVGAIMNCADNSGAR [RPL23A] | 1.91 ± 0.053 | 2.28 ± 0.06 | 1.63 ± 0.068 | 1.83 ± 0.055
8 | GAKGSTLIVVPFNQGSK [FAS2] | 2.1 ± 0.095 | 2.48 ± 0.088 | 2.18 ± 0.14 | 1.85 ± 0.073
9 | PKSLNSNININVNNNNI [SWI1] | 3.03 ± 0.14 | 2.63 ± 0.12 | 3.04 ± 0.066 | 2.81 ± 0.098
10 | KPNIILDEDDTNDGIER [RPC31] | 3.42 ± 0.076 | 3.27 ± 0.085 | 3.31 ± 0.051 | 3.27 ± 0.043
11 | WDYLQLTVAMYINSDSV [RPO31] | 1.32 ± 0.071 | 1.34 ± 0.086 | 1.64 ± 0.25 | 1.58 ± 0.071
12 | YSPKQDEQKHNENENSR [RPO21] | 2.69 ± 0.059 | 2.54 ± 0.064 | 2.63 ± 0.07 | 2.67 ± 0.056
13 | YTQYTNDYLEKHSVTEY [CDC53] | 2.55 ± 0.1 | 2.45 ± 0.075 | 2.81 ± 0.071 | 3.13 ± 0.092
14 | QQQQQQQVPPLPDELTL [DLS1] | 2.63 ± 0.035 | 2.72 ± 0.038 | 2.727 ± 0.027 | 2.689 ± 0.025
15 | DAEVAQFLEQGLSIHPT [SRP68] | 2.79 ± 0.057 | 3 ± 0.063 | 2.76 ± 0.073 | 3.1 ± 0.042
16 | RMMGCVKKQKSARGIET [FAS2] | 1.59 ± 0.09 | 1.4 ± 0.1 | 1.36 ± 0.16 | 1.48 ± 0.064
17 | YWFPLAHFLSLSFTPTT [RPN2] | 1.65 ± 0.036 | 1.34 ± 0.033 | 1.19 ± 0.076 | 1.19 ± 0.028
18 | GRILKWLWPLCRGELKA [CDC53] | 1.58 ± 0.095 | 1.64 ± 0.06 | 1.32 ± 0.11 | 1.13 ± 0.045
19 | MRNFSKQNQDSKHNERN [YDL088C/ASM4] | 3.01 ± 0.11 | 3.32 ± 0.14 | 2.46 ± 0.09 | 3.34 ± 0.093
20 | MSLKDKLLIQIDELSNG [SMC1] | 2.27 ± 0.084 | 2.34 ± 0.11 | 3.08 ± 0.11 | 2.52 ± 0.1
21 | HNAKNGTLDKNSQTVSG [SNF2] | 1.98 ± 0.13 | 2.42 ± 0.2 | 2.37 ± 0.2 | 2.96 ± 0.16
22 | FTFGQSTSENKISEGSA [YOR098C/NUP1] | 3.71 ± 0.16 | 3.35 ± 0.084 | 2.86 ± 0.12 | 3.37 ± 0.11
23 | LGKYDLTVIEKLDSKKI [SRP68] | – | 2.86 ± 0.23 | 3.53 ± 0.12 | 3.63 ± 0.16
24 | SADPSLLIDQFSPVISQ [SWI1] | 2.85 ± 0.12 | 3.08 ± 0.1 | 2.51 ± 0.18 | 2.96 ± 0.067
25 | DVYTLPSYVHFKVQIIE [YML103C/NUP188] | 1.61 ± 0.055 | 1.71 ± 0.05 | 1.43 ± 0.069 | 1.66 ± 0.033
26 | IVGLATLIVNTDVEKSD [SRP21] | – | – | – | 3.69 ± 0.26
27 | QFCAFDSSSNTYRSRAQ [SIN4] | 2.82 ± 0.075 | 2.37 ± 0.08 | 2.81 ± 0.05 | 2.39 ± 0.057
28 | SAETLSELIRTTLDAEK [FAS1] | 2.78 ± 0.054 | 2.73 ± 0.046 | 2.84 ± 0.044 | 2.63 ± 0.053

Row | Sequence | protein stability index (doa10∆) | protein stability index (pdr5∆) | protein stability index (san1∆) | protein stability index (ubr1∆)
29 | HFTSPIRRYCDVVAHRQ [DIS3] | 2.04 ± 0.082 | 2.21 ± 0.066 | 2.06 ± 0.1 | 1.84 ± 0.073
30 | VDNTVPSTTLFNFGGKS [YOR098C/NUP1] | 1.75 ± 0.047 | 2.07 ± 0.049 | 2.28 ± 0.058 | 2.38 ± 0.033
31 | NQNSDMKKKLELISYRN [SRB8] | 2.91 ± 0.048 | 3.04 ± 0.059 | 2.93 ± 0.051 | 3.08 ± 0.04
32 | HDWLNALDGDLIELLEK [YCG1] | – | 3.32 ± 0.2 | 2.75 ± 0.24 | 3.55 ± 0.11
33 | AKNSIIDSSNLPLQAQQ [SWI1] | 2.73 ± 0.069 | 2.94 ± 0.071 | 2.74 ± 0.099 | 2.78 ± 0.042
34 | IKQTSDESTIKRIKPNT [ECM29] | 3 ± 0.073 | 3 ± 0.068 | 2.85 ± 0.048 | 2.94 ± 0.059
35 | NKKDKKKEEEEQLSEED [RPN1] | 3.55 ± 0.21 | 3.76 ± 0.23 | 3.28 ± 0.13 | 3.36 ± 0.15
36 | EFFNTLRKSRETVKLPR [RRI2] | – | 3.55 ± 0.18 | 3.02 ± 0.15 | –
37 | MLMPKEDRNKIHQYLFQ [RPS10A] | 2.27 ± 0.057 | 2.58 ± 0.057 | 2.49 ± 0.079 | 2.71 ± 0.047
38 | AVAEAYNNRSLLDFNTA [RPN6] | 3.16 ± 0.081 | 2.98 ± 0.077 | 3.11 ± 0.066 | 3.25 ± 0.11
39 | VDPFTRKEWFDIKAPST [RPS1A] | 2.38 ± 0.072 | 2.57 ± 0.067 | 2.55 ± 0.045 | 2.89 ± 0.06
40 | ILRKPGKDCKLQNLQRI [RRI2] | 3.12 ± 0.094 | 3.47 ± 0.14 | 3.14 ± 0.096 | 3.07 ± 0.13
41 | VSSAKFSGKYLKYLTKK [RPL22B] | 2.82 ± 0.25 | 2.52 ± 0.2 | 2.59 ± 0.12 | 2.66 ± 0.18
42 | KSFANHTEDEQIEKKKI [SIR4] | 2.96 ± 0.14 | 2.28 ± 0.087 | 2.66 ± 0.096 | 2.13 ± 0.048
43 | YSSIPSLQDSIIKQENF [SSN2] | 2.7 ± 0.13 | 2.99 ± 0.17 | 2.5 ± 0.086 | 2.79 ± 0.14
44 | SVGVIINKMVGNRYLEK [RPL21A] | 3.01 ± 0.14 | 3.35 ± 0.13 | 2.43 ± 0.2 | 3 ± 0.095
45 | HTSSGSVSFKVFLLLQA [BRR2] | 1.79 ± 0.042 | 1.84 ± 0.044 | 1.5 ± 0.074 | 1.62 ± 0.056
46 | EAEFSLRELSCCINAAF [RRP46] | 2.63 ± 0.053 | 2.83 ± 0.064 | 2.76 ± 0.047 | 2.97 ± 0.056
47 | FNKTTNIDINNEDENIQ [YJL041W/NSP1] | 3.19 ± 0.074 | 3.31 ± 0.082 | 3.09 ± 0.056 | 3.2 ± 0.059
48 | NPRKRKASVLEISPQDS [GAL11] | – | – | – | 3.1 ± 0.13
49 | LKHKSICSCVNRGVKLE [RPP1] | 2.31 ± 0.068 | 2.75 ± 0.051 | 2.57 ± 0.068 | 2.68 ± 0.034
50 | RGFNNQIMQLKKICNHP [SNF2] | 3.13 ± 0.066 | 3.15 ± 0.067 | 3.07 ± 0.049 | 3.2 ± 0.06
51 | VSSSSRHHRKTEKEEDA [ISW2] | 2.66 ± 0.064 | 2.81 ± 0.057 | 2.05 ± 0.058 | 2.86 ± 0.054
52 | TRSIKEKWLLNQIPVTE [SRB6] | 1.13 ± 0.1 | 1.34 ± 0.18 | 1.29 ± 0.19 | 1.18 ± 0.17
53 | IVSPQSNKPCMGIVQDT [RPO21] | 1.74 ± 0.064 | 1.68 ± 0.047 | 1.76 ± 0.098 | 1.58 ± 0.046
54 | NLVVSGPPQSLYGLNLT [FAS1] | 2.69 ± 0.071 | 2.35 ± 0.059 | 2.51 ± 0.075 | 2.45 ± 0.043
55 | LTKKEKKEANLFPEQQN [RPL6A] | 3.08 ± 0.072 | 3.2 ± 0.072 | 3.25 ± 0.06 | 3.16 ± 0.048
